{
  "source": "paper PMC4601027",
  "about": "“Structural Analysis of the Pin1-CPEB1 interaction and its potential role in CPEB1 degradation” (Scientific Reports, 2015)",
  "molecules": {"B1": {"name": "NF1: recombinant unphosphorylated fragment (88–183) of the N-terminal region of CPEB1 Isoform 1 (Uniprot Q9BZB8) (protein, UniProt Q9BZB8 88-183, looked up, fragment)", "chain": "GLPDANDLCLGLQSLSLTGWDRPWSTQDSDSSAQSSTHSVLSMLHNPLGNVLGKPPLSFLPLDPLGSDLVDKFPAPSVRGSRLDTRPILDSRSSSP"}, "B2": {"name": "NF2: recombinant unphosphorylated fragment (196–293) of the N-terminal region of CPEB1 Isoform 1 (Uniprot Q9BZB8) (protein, UniProt Q9BZB8 196-293, looked up, fragment)", "chain": "DHLSDLISSLRISPPLPFLSLSGGGPRDPLKMGVGSRMDQEQAALAAVTPSPTSASKRWPGASVWPSWDLLEAPKDPFSIEREARLHRQAAAVNEATC"}},
  "target": "Pin1 WW domain",
  "experiment": "ITC titration of unphosphorylated CPEB1 N-terminal fragments with Pin1 WW domain",
  "type": "binding",
  "details": "Pin1 WW domain as titrant, fragment as titrate, titrations could not be efficiently saturated, data not shown",
  "excerpt": "CPEB1 proteins display high sequence conservation in vertebrates (Supplementary Fig.1). To gain insight into the association of Pin1 with CPEB1 in the basal state, we prepared two recombinant fragments named NF1 (88–183) and NF2 (196–293), selected from the N-terminal region of CPEB1 (Fig. 1a). The boundaries of these constructs were chosen to be similar to that used by Nechama et al.[14], and were extended to include Ser210, known to be essential for degradation after phosphorylation by Cdc2[9]. Since target recognition of Pin1 is achieved by the interaction of the WW domain with the protein partners, we prepared an ^15N-labeled WW domain sample and monitored the chemical shift perturbations induced in the WW domain by the presence of the ligands (1:1 WW: ligand ratio) using HSQC experiments (Fig. 1b,c). These experiments reveal that, despite the low affinity associations, residues of the WW domain are clearly affected by the presence of the CPEB 1 fragments. Attempts to saturate the NMR titration using high ligand excess were precluded due to the aggregation tendency of the NF1 and NF2 fragments. […]\nITC measurements were performed using a nano ITC calorimeter (TA Instruments) at 12 °C or 25 °C. […] Protein concentration was measured in a NanoDrop™ 2000 measuring the UV absorption at 280 nm. Peptide concentration was determined by amino acid analysis. […]",
  "data": [
    {"molecule": "B1", "values": [
      {"measurement": "binding affinity to Pin1 WW domain", "value": "high μM up to the mM range"}
    ]},
    {"molecule": "B2", "values": [
      {"measurement": "binding affinity to Pin1 WW domain", "value": "high μM up to the mM range"}
    ]}
  ]
}
